B1: Retinoic acid receptor beta, residues 85 to 161; numbered along this chain, P10826 (parent)
chain: YKPCFVCQDKSSGYHYGVSACEGCKGFFRRSIQKNMIYTCHRDKNCVINKVTRNRCQYCRLQKCFEVGMSKESVRND

Variants of: B1
Assay: abundance fitness (aPCA) (normalised: wild type 0, dead -1); higher = more abundant; growth selection in yeast, the domain comes from the species named
Conditions: Homo sapiens

Abundance fitness of substitutions, site by site:
Q33: G -0.044; F -0.148; M 0.136; E -0.017; N 0.066; Y -0.328; V 0.045; S -0.014; L 0.078; D 0.016; K -0.016; R -0.037; C -0.225; I 0.028; P -0.773; W -0.097; H -0.175; T -0.15; A 0.105
G26: C -0.107; I -0.078; K -0.49; M -0.396; L -0.265; E 0.107; D 0.162; R -0.481; W -0.862; A -0.021; Y -0.467; T -0.024; H -0.109; V -0.121; Q -0.11; F -0.193; N 0.246; S -0.254
N35: V -0.184; H -0.373; K 0.186; D 0.128; G 0.077; L -0.235; S 0.035; F -0.215; A 0.037; C 0.024; Q 0.087; E 0.159; R -0.018; W -0.45; P -0.312; I -0.684; M -0.149; T 0.039
C21: V -0.881; D -0.904; F -1.14; Q -0.93; W -0.839; K -0.91; E -0.575; T -0.98; S -0.933; I -0.89; N -0.501; A -0.809; Y -0.885; G -0.76; M -0.751; L -0.752; R -0.666
C24: P -1.06; E -0.842; D -0.47; Y -0.309; S -0.793; N -1.07; R -0.793; F -0.577; L -0.624; A -1.03; H -0.896; M -0.817; K -0.89; W -0.955; T -0.736
S31: E -0.505; Y -0.51; R -0.559; T 0.148; M -0.486; W -0.09; N -0.508; G -0.774; L -0.6; P -0.611; C -0.12; I -0.413; V -0.341; A -0.121
K34: M 0.104; F 0.014; I -0.371; R -0.122; W 0.05; L 0.074; G 0.078; N 0.089; E 0.169; P -0.084; C -0.05; T -0.06; H -0.146; A 0.003; D 0.33; V -0.145; Y -0.007
F28: A -0.534; Q -0.807; N -0.847; Y -0.439; W -0.123; V -0.688; L -0.588; P -1.06; K -0.9; C -0.895; M -0.47; I -0.453; H -0.338; T -0.604; G -0.82; E -0.983
Y16: M -0.15; W -0.126; S -0.072; G 0.025; I -0.178; P -0.115; K -0.295; L -0.045; Q -0.027; T -0.069; N -0.08; V -0.062; F 0.035
K25: T 0.048; D 0.031; C 0.02; H -0.223; G -0.017; E 0.036; W 0.008; V 0.183; S 0.099; F 0.133; Q 0.122; L 0.028; I 0.094; A 0.205; N 0.133; R -0.069; Y -0.047
S19: C -0.088; W 0.024; F -0.09; A 0.011; T 0.02; Y -0.048; I 0.066; N -0.095; E 0.017; V 0.131; D -0.285; M -0.003; H -0.032; Q 0.049; R -0.121; K -0.21; P -0.045; L -0.046
E22: K -0.205; I -0.267; R -0.663; L -0.186; D -0.025; T -0.126; A -0.209; W -0.368; G -0.325; N -0.317; S -0.239; P -0.324; M -0.224; Q -0.316; V -0.203
I32: S -0.487; W -0.432; A -0.156; C -0.176; N -0.059; R -0.648; V 0.055; P -1.09; G -0.521; D -0.312; Y -0.056; F -0.633; L -0.08; Q -0.261; M -0.105; K -0.45
M36: H -0.025; E 0.124; K 0.01; R -0.064; F -0.4; G -0.141; I -0.239; P -0.216; L 0.053; N 0.009; Q 0.089; A 0.132; C 0.15
G23: M -0.227; W -0.138; Y -0.452; Q 0.057; T -0.008; I -0.282; P 0.072; N -0.063; F -0.304; R -0.395; E 0.231; S 0.114; A 0.016; V -0.149; D 0.228; K -0.288; C 0.108; H -0.114
F27: Q -0.97; E -0.822; Y -0.57; G -0.715; P -0.888; A -0.748; L -0.886; I -0.724; C -0.703; D -0.698; S -0.773; M -0.454
R29: V 0.084; P -0.77; N 0.145; E 0.167; S 0.098; W 0.011; H 0.162; K -0.092; A 0.072; Y -0.339; I 0.069; T 0.211; L 0.026; Q 0.091; D -0.079
G17: Q -0.311; L -0.368; P -0.164; N -0.091; C -0.24; A -0.278; S -0.219; K -0.138; W -0.603; V -0.481; Y 0.101; D -0.246; T -0.242; M -0.254; E -0.08; R -0.288; H -0.292
V18: C -0.106; R -0.76; S -0.165; Y -0.29; I 0.012; H -0.433; L -0.353; Q -0.04; P -0.365; T 0.103; F -0.108; M -0.209; A 0.088; E -0.421; D -0.637; G -0.22
A20: V -0.07; K -1.08; I 0.055; Q -0.355; Y -0.594; T -0.065; N -0.491; M -0.228; R -0.785; G -0.614; C 0.064; W -0.672; L -0.112; P -0.724; S -0.07; F -0.077; E -0.66
R30: Q -0.311; T -0.707; C -0.694; W -0.647; V -1.02; L -1.02; K 0.152; D 0.234; G -0.702; S -0.644; H -0.172; E 0.142; A -0.935

— the Human Domainome abundance scans (Beltran et al. 2025)
